The Human Domainome abundance scans (Beltran et al. 2025)

B1: Gamma-crystallin D, residues 90 to 170; numbered along this chain, P07320 (parent)
chain: IRLYEREDYRGQMIEFTEDCSCLQDRFRFNEIHSLNVLEGSWVLYELSNYRGRQYLLMPGDYRRYQDWGATNARVGSLRRV

Variants of: B1
Assay: abundance fitness (aPCA) (normalised: wild type 0, dead -1); higher = more abundant; growth selection in yeast, the domain comes from the species named
Details: Homo sapiens

Abundance fitness of substitutions, site by site:
N30: I 0.187, Y -0.1, R 0.024, D 0.018, E 0.092, T 0.038, A 0.028, H -0.081, M -0.051, L -0.122, W -0.036, G 0.054, V 0.143, K 0.107
E18: N 0.11, C 0.05, T -0.035, S 0.04, L 0.001, I -0.074, D -0.08, P -0.584, A -0.018, Q 0.054, W -0.142, H 0.027, R 0.048, V -0.004, G -0.088, M -0.005
T17: S -0.022, N -0.001, W -0.068, L 0.001, Q -0.11, G 0.016, M -0.172, R 0.074, P 0.152, I 0.073, K -0.061, V 0.005, Y 0.004
L35: Y -0.249, R -0.863, H -0.535, Q -0.01, V 0.048, E -1.08, I 0.231, S -0.035, A 0.024, N -0.156, T -0.034, G 0.035, W -0.552, F 0.148, M -0.036, P -1
R28: D 0.128, S 0.024, P -0.023, K 0.139, A -0.005, L -0.043, Q 0.1, T -0.002, E -0.177, M 0.065, I 0.029, C -0.047, G -0.031, Y -0.004, F -0.203, H -0.32
S34: W -0.828, A 0.112, H -0.771, I -0.84, M -0.689, Y -0.893, C -0.014, T -0.924, G -0.099, R -0.766, V -1.08, D -0.936, P -1.03, E -0.853
D19: I -0.249, N -0.058, M -0.06, A -0.116, K -0.144, S -0.115, P -0.003, W -0.108, F 0.004, E 0.035, T 0.039, R -0.129, L -0.169, V -0.087, Q 0.041, H -0.033, Y -0.155, C -0.065
E31: D -0.096, I 0.139, K -0.004, N 0.005, P 0.152, S -0.123, T 0.048, Q 0.116, G 0.035, M 0.03, F -0.109, R 0.004, W 0.078, C -0.192, L 0.054, V -0.105, H 0.059
C22: M 0.091, S 0.015, G 0.019, H -0.07, Q -0.023, Y -0.009, A 0.002, L -0.049, V -0.08, W -0.107, N -0.149, E 0.056, P -0.104, D 0.089, K -0.134, F 0.113, R -0.044
H33: C -0.01, N -0.082, W 0.02, I 0.07, Q 0.04, V 0.04, F -0.023, G 0.079, A 0.039, M 0.05, L -0.024, T -0.065, S 0.118, E 0.078, R -0.005, D 0.011, K -0.057, P 0.062
D25: P 0.073, A 0.005, G 0.041, F -0.036, N -0.197, M -0.149, Y -0.17, C -0.308, R -0.045, L 0.06, K 0.103, V -0.051, T -0.168, S -0.127, W -0.087, E 0.088, I -0.052
N36: Q 0.051, K -0.023, E 0.023, R 0.006, V -0.098, T -0.153, D -0.051, A 0.045, H -0.058, G -0.087, C -0.054, W 0.076, I -0.05, F 0.114, Y -0.086, S 0.135, M -0.112, P -1.23
Q24: P 0.02, S -0.008, K 0.068, M 0.167, A -0.021, W -0.073, T -0.08, N -0.022, H 0.08, R 0.013, D -0.051, Y -0.045, I -0.038, G 0.01, E 0.029, C -0.025, V -0.086
C20: L -0.01, K -0.096, R 0.069, S -0.011, P -0.486, E 0.135, N 0.042, Y 0.3, M -0.04, H -0.104, D 0.108, I -0.047, T 0.015, W 0.056, V -0.061, G 0.052
R26: P 0.071, H 0.008, A -0.027, D -0.053, M -0.007, N 0.039, Q 0.032, C 0.091, V -0.006, Y 0.095, W 0.061, E 0.047, F -0.292, S 0.05, G -0.018, T -0.048
F27: Y -0.048, K -0.009, R -0.126, M -0.129, C -0.031, G -0.106, E 0.065, V -0.092, H -0.343, L -0.105, N -0.086, I -0.035, W -0.103, P 0.103, A -0.056, D 0.012, S 0.011, T -0.09
I32: P -0.003, N -0.101, D -0.346, A -0.11, M 0.02, E -0.201, T -0.037, V 0.127, G 0.063, S -0.007, K -0.235, W 0.067, Y 0.325, Q -0.251, L 0.119, R -0.062, F -0.001, C 0.032
F29: Q 0.041, T -0.135, R 0.117, E 0.05, H -0.066, Y 0.161, L -0.012, D 0.008, V -0.072, G -0.007, A 0.008, N -0.064, P 0.069, S 0.093, W 0.031, I -0.112, C 0.036
V37: F 0.159, E -1.11, A 0.01, D 0.165, C -0.126
S21: W -0.099, N -0.183, F 0.017, P -0.215, T -0.047, A -0.023, D 0.044, M -0.171, V -0.044, H -0.088, G -0.05, R -0.03, I 0.004, K -0.045, C -0.054, E 0.069, Y 0.069, Q -0.246
L23: G -0.24, T 0.004, C -0.023, F -0.027, R -0.332, K -0.033, W -0.215, S 0.14, N -0.055, H -0.833, P -0.029, V -0.043, I -0.098, A 0.086, Q -0.217
